Assay [1] addresses rHuman Notch-1/Fc Chimera, CF (R&D Systems Cat#3647-TK) (human) (UniProt P46531). Kind of assay: ECL multispot (MSD), 20 nM Fab.
For assay [2], the target named is Recombinant Human DLL4 (R&D Systems Cat#1506-D4/CF) (human) (UniProt Q9NR61). The assay is described as follows: ECL multispot (MSD), 20 nM Fab.
Assay [3] deals with rHuman EGF R/Fc Chimera, CF (R&D Systems Cat#344-ER) (human) (UniProt P00533). Kind of assay: ECL multispot (MSD), 20 nM Fab.
The target of assay [4] is rHuman ErbB2/Fc Chimera, CF (R&D Systems Cat#1129-ER) (human) (UniProt P04626). Kind of assay: ECL multispot (MSD), 20 nM Fab.
Assay [5] has as its target rHuman CD44/Fc Chimera, CF (R&D Systems Cat#3660-CD) (human) (UniProt P16070). The assay is described as follows: ECL multispot (MSD), 20 nM Fab.
Assay [6] concerns the target rHuman HGF R/c-MET/Fc Chimera, CF (R&D Systems Cat#358-MT/CF) (human) (UniProt P08581). Kind of assay: ECL multispot (MSD) binding assay, antigens spotted on plate, 20 nM Fab.
The target of assay [7] is rHuman Notch-1/Fc Chimera, CF (R&D Systems Cat#3647-TK) (human) (UniProt P46531). The description is as above.
Assay [8] has as its target rHuman IGF-1 sR, (IGF-1 sR), CF (R&D Systems Cat#391-GR) (human) (UniProt P08069). The description is as above.
Assay [9] deals with rHuman CD44/Fc Chimera, CF (R&D Systems Cat#3660-CD) (human) (UniProt P16070). The description is as above.
In assay [10] the target is Recombinant Human DLL4 (R&D Systems Cat#1506-D4/CF) (human) (UniProt Q9NR61). The assay is described as above.
The target of assay [11] is rHuman HGF R/c-MET/Fc Chimera, CF (R&D Systems Cat#358-MT/CF) (human) (UniProt P08581). Kind of assay: ECL (MSD) multispot binding assay, antigen spotted on plate, 20 nM Fab.
Assay [12] concerns the target rHuman P-Cadherin/Fc Chimera, CF (R&D Systems Cat#861-PC) (human) (UniProt P22223). The description is as above.
Assay [13] has as its target rHuman Erythropoietin R/Fc Chimera, CF (R&D Systems Cat#963-ER) (human) (UniProt P19235). The assay is described as above.
Assay [14] deals with rHuman CD44/Fc Chimera, CF (R&D Systems Cat#3660-CD) (human) (UniProt P16070). Described as above.
In assay [15] the target is rHuman IGF-1 sR, CF (R&D Systems Cat#391-GR) (human) (UniProt P08069). The assay is described as follows: ECL multispot (MSD) binding assay, antigen spotted on plate, Fab in solution; blank spot 424.
For assay [16], the target named is rHuman Notch-1/Fc Chimera, CF (R&D Systems Cat#3647-TK) (human) (UniProt P46531). Described as above.
Assay [17] addresses rHuman EGF R/Fc Chimera, CF (R&D Systems Cat#344-ER) (human) (UniProt P00533). The assay is described as above.
The target of assay [18] is rHuman CD44/Fc Chimera, CF (R&D Systems Cat#3660-CD) (human) (UniProt P16070). The assay is described as above.
Assay [19] deals with rHuman ErbB2/Fc Chimera, CF (R&D Systems Cat#1129-ER) (human) (UniProt P04626). Described as above.
In assay [20] the target is rHuman HGF R/c-MET/Fc Chimera, CF (R&D Systems Cat#358-MT/CF) (human) (UniProt P08581). The assay is described as above.
Assay [21] addresses rHuman P-Cadherin/Fc Chimera, CF (R&D Systems Cat#861-PC) (human) (UniProt P22223). The description is as above.
Assay [22] addresses rHuman IGF-1 sR, CF (R&D Systems Cat#391-GR) (human) (UniProt P08069). Kind of assay: ECL multispot (MSD) binding assay, antigen spotted on plate, Fab in solution; blank spot 240.
Assay [23] concerns the target rHuman Notch-1/Fc Chimera, CF (R&D Systems Cat#3647-TK) (human) (UniProt P46531). The description is as above.
Assay [24] addresses rHuman EGF R/Fc Chimera, CF (R&D Systems Cat#344-ER) (human) (UniProt P00533). The description is as above.
Assay [25] concerns the target rHuman CD44/Fc Chimera, CF (R&D Systems Cat#3660-CD) (human) (UniProt P16070). Described as above.
The target of assay [26] is rHuman ErbB2/Fc Chimera, CF (R&D Systems Cat#1129-ER) (human) (UniProt P04626). The assay is described as above.
Assay [27] deals with rHuman HGF R/c-MET/Fc Chimera, CF (R&D Systems Cat#358-MT/CF) (human) (UniProt P08581). The assay is described as above.
In assay [28] the target is rHuman P-Cadherin/Fc Chimera, CF (R&D Systems Cat#861-PC) (human) (UniProt P22223). Described as above.
The target in assay [29] is rHuman IGF-1 sR (insulin-like growth factor-1 soluble receptor) (human) (UniProt P08069). The assay is described as follows: ECL (MSD) multispot assay, antigen spotted; blank spot of this row 424.
The target of assay [30] is rHuman HGF R/c-MET/Fc Chimera (human) (UniProt P08581). Described as above.
In assay [31] the target is rHuman IGF-1 sR, CF (R&D Systems Cat#391-GR) (human) (UniProt P08069). Kind of assay: ECL multispot (MSD) binding assay, antigen spotted on plate, Fab in solution; blank spot 213.
The target in assay [32] is rHuman Notch-1/Fc Chimera, CF (R&D Systems Cat#3647-TK) (human) (UniProt P46531). The assay is described as above.
Assay [33] deals with rHuman EGF R/Fc Chimera, CF (R&D Systems Cat#344-ER) (human) (UniProt P00533). The description is as above.
In assay [34] the target is rHuman CD44/Fc Chimera, CF (R&D Systems Cat#3660-CD) (human) (UniProt P16070). The assay is described as above.
Assay [35] has as its target rHuman ErbB2/Fc Chimera, CF (R&D Systems Cat#1129-ER) (human) (UniProt P04626). Described as above.
The target of assay [36] is rHuman HGF R/c-MET/Fc Chimera, CF (R&D Systems Cat#358-MT/CF) (human) (UniProt P08581). The description is as above.
Assay [37] addresses rHuman P-Cadherin/Fc Chimera, CF (R&D Systems Cat#861-PC) (human) (UniProt P22223). The assay is described as above.

Consider “Fab VH3-23_IGHD2-21*01>3_IGHJ6*01 H100E/S108P/Y113G (EPG) & V2-13_IGLJ2*01”, for which the ECL signal ratio (column head gives no unit) in assay [1] and in assay [2] was 2.3 throughout.

“Fab VH3-23_IGHD2-21*01>3_IGHJ6*01 H100E/S108P/Y113G (EPG) Y109L & V2-13_IGLJ2*01”: the ECL signal ratio (column head gives no unit) in assay [3] is 2.2; in assay [4], 2.1.

As for “Fab VH3-23_IGHD2-21*01>3_IGHJ6*01 H100E/S108P/Y113G (EPG) Y109W & V2-13_IGLJ2*01”, the ECL signal ratio (column head gives no unit) in assay [5] is 2.4; in assay [2] it was 4.3.

Take “Fab VH3-23_IGHD2-21*01>3_IGHJ6*01 H100E/S108P/Y113G Y110N & V2-13_IGLJ2*01”: in assay [6], the ECL multispot signal (ratio to blank; column not labelled) was 2.3.

Regarding “Fab VH3-23_IGHD2-21*01>3_IGHJ6*01 H100E/S108P/Y113G Y110W & V2-13_IGLJ2*01”, the ECL multispot signal (ratio to blank; column not labelled) in [7] is 3.2; in [8] it was 2.3; in assay [9] it was 2.1; in assay [10] it was 3.9.

With “Fab VH3-23_IGHD2-21*01>3_IGHJ6*01 H100E/S108P/Y113G/Y110R & V2-13_IGLJ2*01”, the ECL signal/blank ratio in [11] was determined as 3.9; in assay [12] it was 3.3.

On to “Fab VH3-23_IGHD2-21*01>3_IGHJ6*01 H100E/S108P/Y113G/Y111E & V2-13_IGLJ2*01”, for which the ECL signal/blank ratio in assay [13] is 2.9.

Consider “Fab VH3-23_IGHD2-21*01>3_IGHJ6*01 H100E/S108P/Y113G/Y111W & V2-13_IGLJ2*01”, for which the ECL signal/blank ratio in assay [14] is 3.4.

“Fab VH5-51_IGHD5-18*01>3_IGHJ4*01 G100K/G104T & V3-4_IGLJ1*01”: the ECL signal in [15] stood at 877; in [16], 543; in [17], 852; in [18], 579; in [19], 1100; in [20], 838. Moreover, the ECL signal in assay [21] was 319; in assay [22], 964; in assay [23], 507; in assay [24], 915; in assay [25], 633; in [26] it was 1070. Also, the ECL signal in assay [27] amounted to 936; in assay [28] it was 346; in assay [29] it was 877; in assay [30], 838; in assay [31], 781; in [32], 437. In addition, the ECL signal in [33] was 768; in assay [34] it was 540; in assay [35] it was 1100; in assay [36], 867; in assay [37], 226.

For the origin of these results see US20120316071A1.
